This data set deals with Escherichia coli TOP10. The data set can be described thus: shrunken log2 fold change of peptide-encoding DNA abundance (4.5 h post-induction vs induction); higher = less antimicrobial activity (less host growth inhibition). Particulars: time post-induction: 4.5 h; library: site-saturation at positions 5, 18, 19, 20.
Turning to RRIRFRPPRLPRPRPRPYNFPRP, the “shrunken log2 fold change” value was -0.458.
Regarding RRIRFRPPRLPRPRPRPERNPRP, the “shrunken log2 fold change” value is -0.184.
Then RRIRGRPPRLPRPRPRPYNQPRP, with -0.104.
RRIRVRPPRLPRPRPRPHCAPRP: the “shrunken log2 fold change” value was -0.179.
Then RRIRCRPPRLPRPRPRPIQSPRP, with 0.0164; and RRIRVRPPRLPRPRPRPEVSPRP, with 0.0554; and RRIRWRPPRLPRPRPRPNMKPRP, with -0.0784.
The figure for RRIRWRPPRLPRPRPRPHQCPRP is -0.112; for RRIRDRPPRLPRPRPRPIFGPRP it is 0.0916.
The figure for RRIRKRPPRLPRPRPRPEAIPRP is 0.101; for RRIRWRPPRLPRPRPRPYAAPRP it is 0.445; for RRIRKRPPRLPRPRPRPNPAPRP it is -0.000888.
With RRIRSRPPRLPRPRPRPISPPRP, the “shrunken log2 fold change” value is -0.402.
Consider RRIRDRPPRLPRPRPRPVPLPRP, for which the “shrunken log2 fold change” value is 0.0621.
The figure for RRIRWRPPRLPRPRPRPRDRPRP is 0.909; for RRIRTRPPRLPRPRPRPKQNPRP it is 0.638; for RRIRTRPPRLPRPRPRPNSLPRP it is 0.0607.
RRIRERPPRLPRPRPRPKNFPRP: the “shrunken log2 fold change” value was -0.311.
Consider RRIRSRPPRLPRPRPRPQNPPRP, for which the “shrunken log2 fold change” value was -0.296.
The figure for RRIRKRPPRLPRPRPRPPHDPRP is 0.559.
Then RRIRHRPPRLPRPRPRPRFYPRP, with -0.015; and RRIRKRPPRLPRPRPRPTKDPRP, with 0.522; and RRIRPRPPRLPRPRPRPFRGPRP, with 0.0377.
Then RRIRERPPRLPRPRPRPKYLPRP, with -0.77; and RRIRFRPPRLPRPRPRPRQFPRP, with -0.0547.
RRIRFRPPRLPRPRPRPSIMPRP: the “shrunken log2 fold change” value is -0.65.
The figure for RRIRNRPPRLPRPRPRPALNPRP is 0.0657; for RRIRTRPPRLPRPRPRPHQFPRP it is -0.738.
For the sequence RRIRRRPPRLPRPRPRPDDIPRP, the “shrunken log2 fold change” value is -0.00879.
The figure for RRIRHRPPRLPRPRPRPDYAPRP is -0.171; for RRIRWRPPRLPRPRPRPITKPRP it is 0.258.
The figure for RRIRCRPPRLPRPRPRPVGPPRP is 0.326; for RRIRKRPPRLPRPRPRPRDHPRP it is 0.494; for RRIRYRPPRLPRPRPRPTTIPRP it is -0.769.
The figure for RRIRPRPPRLPRPRPRPPSPPRP is 0.439; for RRIRVRPPRLPRPRPRPRNSPRP it is 0.1.
In the case of RRIRHRPPRLPRPRPRPEPNPRP, the “shrunken log2 fold change” value turned out to be 0.0235.
In the case of RRIRERPPRLPRPRPRPSEAPRP, the “shrunken log2 fold change” value amounted to 0.134.
Then RRIRGRPPRLPRPRPRPHHRPRP, with -0.00334.
Regarding RRIRFRPPRLPRPRPRPWHIPRP, the “shrunken log2 fold change” value was -0.213.
Then RRIRSRPPRLPRPRPRPVWCPRP, with 0.143; and RRIRNRPPRLPRPRPRPNNPPRP, with -0.511; and RRIRFRPPRLPRPRPRPGDEPRP, with 0.0387.
Take RRIRMRPPRLPRPRPRPGWMPRP: the “shrunken log2 fold change” value came out at 0.622.
The figure for RRIRHRPPRLPRPRPRPCCMPRP is -0.43; for RRIRQRPPRLPRPRPRPDCNPRP it is 0.167; for RRIRNRPPRLPRPRPRPILGPRP it is -0.00992.
On to RRIRMRPPRLPRPRPRPFQKPRP, for which the “shrunken log2 fold change” value was -0.00623.
Turning to RRIRWRPPRLPRPRPRPLNHPRP, the “shrunken log2 fold change” value was -0.176.
The figure for RRIRGRPPRLPRPRPRPCYPPRP is 0.0523; for RRIRKRPPRLPRPRPRPHRMPRP it is -0.0995; for RRIRFRPPRLPRPRPRPELHPRP it is -0.235.
Then RRIRSRPPRLPRPRPRPVIEPRP, with -0.186; and RRIRTRPPRLPRPRPRPHHFPRP, with -0.0421.
With RRIRRRPPRLPRPRPRPMYLPRP, the “shrunken log2 fold change” value is -0.0501.
As to RRIRVRPPRLPRPRPRPAKQPRP, the “shrunken log2 fold change” value is -0.0993.
Then RRIRDRPPRLPRPRPRPMQNPRP, with 0.269; and RRIRYRPPRLPRPRPRPIASPRP, with -0.196.
For RRIRCRPPRLPRPRPRPAVFPRP, the “shrunken log2 fold change” value was -0.127.
In the case of RRIRNRPPRLPRPRPRPTQDPRP, the “shrunken log2 fold change” value is 0.387.
The figure for RRIRNRPPRLPRPRPRPDWGPRP is 0.128.
Then RRIRLRPPRLPRPRPRPKHAPRP, with 0.0823; and RRIRCRPPRLPRPRPRPDHQPRP, with -0.172.
Regarding RRIRFRPPRLPRPRPRPANTPRP, the “shrunken log2 fold change” value was -0.209.
Then RRIRNRPPRLPRPRPRPLEIPRP, with 0.000705; and RRIRYRPPRLPRPRPRPVTTPRP, with -0.209; and RRIRLRPPRLPRPRPRPIGYPRP, with -0.253.
The figure for RRIRWRPPRLPRPRPRPDRLPRP is -0.0216; for RRIRQRPPRLPRPRPRPSHQPRP it is -0.0977.
The figure for RRIRMRPPRLPRPRPRPSRQPRP is 0.956; for RRIRDRPPRLPRPRPRPPFCPRP it is 0.284; for RRIRFRPPRLPRPRPRPGRRPRP it is 0.334.
With RRIRDRPPRLPRPRPRPRCYPRP, the “shrunken log2 fold change” value is 0.105.
As for RRIRNRPPRLPRPRPRPIYDPRP, the “shrunken log2 fold change” value was -0.4.
Then RRIRKRPPRLPRPRPRPTILPRP, with -0.0105; and RRIRRRPPRLPRPRPRPQTHPRP, with 0.361; and RRIRHRPPRLPRPRPRPMIKPRP, with -0.0726.
The figure for RRIRKRPPRLPRPRPRPNCCPRP is 0.179.
The figure for RRIRQRPPRLPRPRPRPAWQPRP is 0.147; for RRIRLRPPRLPRPRPRPPSKPRP it is 0.148; for RRIRQRPPRLPRPRPRPWVCPRP it is -0.208.
RRIRVRPPRLPRPRPRPIGWPRP: the “shrunken log2 fold change” value turned out to be 0.213.
The figure for RRIRHRPPRLPRPRPRPITLPRP is 0.0184; for RRIRPRPPRLPRPRPRPWMMPRP it is -0.03; for RRIRWRPPRLPRPRPRPQIRPRP it is -0.0767.
In the case of RRIRGRPPRLPRPRPRPMANPRP, the “shrunken log2 fold change” value turned out to be 0.057.
Then RRIRDRPPRLPRPRPRPPAFPRP, with 0.192; and RRIRKRPPRLPRPRPRPQGKPRP, with 0.0114.
The figure for RRIRERPPRLPRPRPRPQICPRP is 0.172; for RRIRTRPPRLPRPRPRPYGVPRP it is 0.0122.
Then RRIRFRPPRLPRPRPRPNRRPRP, with 0.048.

The record behind these values is the supplement of paper PMC9112550, “Optimization of the antimicrobial peptide Bac7 by deep mutational scanning” (BMC Biology, 2022).
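Note: peptides expressed intracellularly from a pBAD plasmid library in pooled LB shake-flask culture, induced with 0.3% L-arabinose, DNA abundance read by NGS, three biological replicates, DESeq2 with apeglm shrinkage.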
